Data taken from US20250223354A1 (BIOTHEUS, published 2025).

T1: human TIGIT expressed on cells (human, UniProt Q495A1 22-244)
T1 construct: whole, on cells; cDNA encoding human TIGIT in pCHO1.0 for CHO cells; also called CHO-huTIGIT cells
T1 sequence (looked up): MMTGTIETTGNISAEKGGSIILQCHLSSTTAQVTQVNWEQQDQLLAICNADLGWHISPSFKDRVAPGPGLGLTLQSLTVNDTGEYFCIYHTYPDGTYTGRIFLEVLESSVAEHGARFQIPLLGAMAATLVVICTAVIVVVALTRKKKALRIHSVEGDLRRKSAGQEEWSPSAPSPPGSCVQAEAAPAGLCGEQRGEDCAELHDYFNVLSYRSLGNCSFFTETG

T2: mouse TIGIT overexpressed on CHO cells (mouse, UniProt P86176 29-249)
T2 construct: whole, on cells; also called CHO-muTIGIT cells
T2 sequence (looked up): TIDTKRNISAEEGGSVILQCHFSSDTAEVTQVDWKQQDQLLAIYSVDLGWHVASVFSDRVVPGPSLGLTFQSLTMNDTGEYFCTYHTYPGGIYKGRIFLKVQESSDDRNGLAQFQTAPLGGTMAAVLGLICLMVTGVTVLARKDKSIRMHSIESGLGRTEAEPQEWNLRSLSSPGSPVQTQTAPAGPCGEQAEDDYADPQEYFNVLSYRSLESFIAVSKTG

T3: human TIGIT-his protein (human, UniProt Q495A1 22-141)
T3 construct: not shown: his tag
T3 sequence: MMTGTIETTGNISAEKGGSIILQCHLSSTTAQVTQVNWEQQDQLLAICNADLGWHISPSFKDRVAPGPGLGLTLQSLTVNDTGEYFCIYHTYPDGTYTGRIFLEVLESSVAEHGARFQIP

T4: mouse TIGIT-his protein (mouse, UniProt P86176 29-148)
T4 construct: not shown: his tag
T4 sequence: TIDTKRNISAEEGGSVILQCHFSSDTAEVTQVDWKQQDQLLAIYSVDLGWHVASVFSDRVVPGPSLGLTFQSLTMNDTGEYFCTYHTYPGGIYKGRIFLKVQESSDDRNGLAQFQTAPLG


Columns and labels:
[1] = target: T1, human TIGIT expressed on cells; assay: flow cytometry on CHO cells overexpressing human TIGIT, median fluorescence intensity PE-A; unit from the concentration axis
Excerpt: (§1) Specifically, CHO cells overexpressing human TIGIT (CHO-huTIGIT cells), CHO cells overexpressing cynomolgus TIGIT (CHO-cynoTIGIT cells) and CHO cells overexpressing mouse TIGIT (CHO-muTIGIT cells) were generated by transfection of the pCHO1.0 vector (purchased from Invitrogen) with cDNA encoding human TIGIT, cynomolgus TIGIT and mouse TIGIT cloned into the multiple cloning site (MCS), respectively, followed by pressure screening. The overexpressing cells were expanded and adjusted to an appropriate cell density, and added to a 96-well flow cytometry plate. After centrifugation, the cells were added with a gradiently diluted sample to be tested, and incubated at 4° C. for 30 minutes. The cells were washed twice with PBS, and added with a fluorescent secondary antibody correspondingly diluted to an appropriate concentration, then incubated at 4° C. for 30 minutes, and washed twice with PBS. Cells were resuspended with PBS, and detected on a CytoFlex flow cytometer, and the corresponding MFI was calculated. Graphpad software was used for graphical analysis to obtain EC₅₀ values.

[2] = target: T5, cynomolgus TIGIT overexpressed on CHO cells (cynomolgus, UniProt A0A7N9I9V4 89-312); assay: flow cytometry on CHO cells overexpressing cynomolgus TIGIT, median fluorescence intensity PE-A; unit from the concentration axis
T5 construct: whole, on cells; also called CHO-cynoTIGIT cells
T5 sequence (A0A7N9I9V4 entry or part of it): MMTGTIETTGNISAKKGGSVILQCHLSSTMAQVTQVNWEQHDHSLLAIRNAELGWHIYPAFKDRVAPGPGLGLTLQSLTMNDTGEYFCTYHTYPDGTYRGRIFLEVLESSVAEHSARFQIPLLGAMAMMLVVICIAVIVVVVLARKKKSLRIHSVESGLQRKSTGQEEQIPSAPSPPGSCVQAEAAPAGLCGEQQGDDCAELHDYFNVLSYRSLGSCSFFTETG
Excerpt: as §1

[3] = target: T2, mouse TIGIT overexpressed on CHO cells; assay: flow cytometry, CHO-muTIGIT cells
Excerpt: as §1

[4] = target: T1, human TIGIT expressed on cells; assay: flow cytometry, competition with human CD155-mouse IgG2a Fc (2 ug/mL) on CHO-huTIGIT cells
Description: (§2) Specifically, the CHO-huTIGIT cells were expanded and adjusted to a cell density of 2×10⁶ cells/mL, added to a 96-well flow plate at 100 μL/well, and centrifuged for later use. The purified monoclonal antibodies were diluted 3-fold with PBS starting at 400 nM for a total of 12 concentration gradients. The diluted sample was added at 60 μL/well to the cells-carrying 96-well flow plate, and incubated at 4° C. for 30 minutes. […] APC-conjugated goat anti-mouse IgG antibody diluted 100-fold with PBS was added at 100 μL/well, incubated at 4° C. for 30 minutes, and washed twice with PBS. Cells were resuspended with PBS at 100 μL/well, and detected on a CytoFlex flow cytometer, and the corresponding MFI was calculated.

[5] = target: T1, human TIGIT expressed on cells; assay: flow cytometry blocking assay: binding of human CD155 protein with mouse IgG2a Fc tag to CHO cells overexpressing human TIGIT, median fluorescence intensity APC-A; unit from the concentration axis
Description: as §2

[6] = target: T5, cynomolgus TIGIT overexpressed on CHO …; assay: flow cytometry, CHO-cynoTIGIT cells
Excerpt: as §1

[7] = target: T6, cynomolgus monkey TIGIT-his protein (cynomolgus monkey); assay: BLI (ForteBio), IgG on AHQ sensor, 100 nM TIGIT-his, monovalent, 1:1 model
T6 construct: also called Cynomolgus TIGIT-his; not shown: his tag
T6 sequence (chain, as listed by the source): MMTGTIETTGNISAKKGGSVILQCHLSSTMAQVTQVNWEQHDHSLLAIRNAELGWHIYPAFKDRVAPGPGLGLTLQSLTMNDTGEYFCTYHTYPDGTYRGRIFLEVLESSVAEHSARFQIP
Description: (§3) Biofilm layer optical interference technology (ForteBio) was used to determine the binding and dissociation […] values of the anti-TIGIT monoclonal antibodies obtained in Example 1 to human, cynomolgus monkey and mouse TIGIT. Fortebio affinity measurements were performed according to existing methods (Este, P et al., High throughput solution-based measurement of antibody-antigen affinity and epitope binning. Mabs, 2013.5(2): p 270-8).
(§4) The antibody-loaded sensor was incubated in 100 nM TIGIT-his antigen to the plateau phase, and then the sensor was transferred to an analysis buffer and incubated for at least 2 minutes for measuring dissociation rate. The kinetic analysis was performed using a 1:1 binding model.

human TIGIT-his protein [8] = target: T3, human TIGIT-his protein; assay: as above
Description: as §3, §4

mouse TIGIT-his protein = target: T4, mouse TIGIT-his protein; assay: BLI (ForteBio), IgG on AHQ sensor, monovalent
Description: as §4

[9] = target: T1, human TIGIT expressed on cells; assay: flow cytometry, CHO-huTIGIT cells
Excerpt: as §1

[10] = target: T1, human TIGIT expressed on cells; assay: flow cytometry on activated human primary T cells (TIGIT), readout positive cell (%); unit from the concentration axis
Excerpt: The binding activity of the anti-TIGIT antibody of the present invention to TIGIT on the surface of activated T cells was detected based on the flow cytometry detection method.
Specifically, human PBMC were sorted according to the experimental protocol provided by […] Company (stemcell, Cat. No.: #17951C) to obtain human total T cells. […] The activated T cells were adjusted to an appropriate cell density and added to a 96-well flow cytometry plate. After centrifugation, the gradiently diluted sample to be tested was added, and incubated at 4° C. for 30 minutes. Washing was carried out twice with PBS, and a fluorescent secondary antibody diluted to an appropriate concentration was added, incubated at 4° C. for 30 minutes, and washed twice with PBS. […]

[11] = target: T2, mouse TIGIT overexpressed on CHO cells; assay: flow cytometry, competition with mouse CD155-mouse IgG2a Fc (2 ug/mL) on CHO-muTIGIT cells
Description: as §2, with “The CHO-muTIGIT” for “Specifically, the CHO-huTIGIT”, “antibody was” for “monoclonal antibodies were”, “calculated. Graphpad software was used for graphing analysis to obtain IC₅₀ values.” for “calculated.”

[12] = target: T5, cynomolgus TIGIT overexpressed on CHO …; assay: flow cytometry, CHO-cynoTIGIT cells; remark: listed apart in the source
Excerpt: as §1, with “(CHO-huTIGITcells),” for “(CHO-huTIGIT cells),”

[13] = target: T6, cynomolgus monkey TIGIT-his protein; assay: BLI (ForteBio), antibody on AHQ sensor, 100 nM antigen, monovalent, 1:1 model
Description: (§5) The antibody-loaded sensor was incubated in 100 nM target antigen to the plateau phase, and then the sensor was transferred to an analysis buffer and incubated for at least 2 minutes for measuring dissociation rate. The kinetic analysis was performed using a 1:1 binding model.

human TIGIT-his protein [14] = target: T3, human TIGIT-his protein; assay: as above
Description: as §5

[15] = target: T1, human TIGIT expressed on cells; assay: flow cytometry, competition with human CD155-mouse IgG2a Fc (2 ug/mL) on CHO-huTIGIT cells; remark: listed apart in the source
Description: as §2, with “antibody was” for “monoclonal antibodies were”

[16] = target: T2, mouse TIGIT overexpressed on CHO cells; assay: flow cytometry, CHO-muTIGIT cells; remark: listed apart in the source
Excerpt: as §1, with “(CHO-huTIGITcells),” for “(CHO-huTIGIT cells),”

[17] = target: T1, human TIGIT expressed on cells; assay: flow cytometry, CHO-huTIGIT cells; remark: listed apart in the source
Excerpt: as §1, with “(CHO-huTIGITcells),” for “(CHO-huTIGIT cells),”

EC50 [1] [nM]	EC50 [2] [nM]	binding result [3]	IC50 [4] [nM]	IC50 [5] [nM]	EC50 [6] [nM]	Kd [7] [nM]	Kd (human TIGIT-his protein [8]) [nM]	binding result (mouse TIGIT-his protein)	EC50 [9] [nM]	EC50 [10] [nM]	IC50 [11] [nM]	EC50 [12] [nM]	Kd [13] [nM]	Kd (human TIGIT-his protein [14]) [nM]	IC50 [15] [nM]	EC50 [16] [nM]	EC50 [17] [nM]	Binder
0.658	1.12	no binding	0.36	0.356	1.13	24.1	3.5	no binding (tested: 100 nM)	0.66	0.0517								anti-TIGIT monoclonal antibody 55812-G1 (antibody, human IgG1, V domains shown, Wild-type human IgG1 heavy chain constant region, human kappa light chain constant region; HEK293) VH: QVQLVQSGAEVKKPGASVKVSCKASGYAFTGYYMHWVRQAPGQGLEWMGSIIPFSGEANYAQKFQGRVTMTRDTSISTAYMELSRLRSDDTAVYYCARGPGSLDRLWYYYYGMDVWGQGTTVTVSS VL: not shown
0.698	1.28	no binding	0.32	0.319	1.28	22.1	3.4	no binding (tested: 100 nM)	0.7	0.057								anti-TIGIT monoclonal antibody 55812-G1LALA (antibody, human IgG1, V domains shown, Human IgG1 heavy chain constant region modified by L234A, L235A; human kappa light chain constant region; HEK293) VH: QVQLVQSGAEVKKPGASVKVSCKASGYAFTGYYMHWVRQAPGQGLEWMGSIIPFSGEANYAQKFQGRVTMTRDTSISTAYMELSRLRSDDTAVYYCARGPGSLDRLWYYYYGMDVWGQGTTVTVSS VL: not shown
											0.889	1	3.12	0.322	0.425	2.52	1.43	anti-TIGIT monoclonal antibody ADI-55796 (antibody, V domains shown) VH: QLQLQESGPGLVKPAETLSLTCTVSGGSISSYDHYWTWIRQPPGKGLEWIGTVYYSGSTFHNPSLKSRVTIPVDTSKNQFSLKLSSVTAADTAVYYCARVGPDVSHPPFDYWGQGTLVTVSS VL: not shown
